Measured values reported in paper PMC9940316 (2023).

Molecular target: human plasma IgG1 (human, UniProt P01857 = IgG part)
Test: SPR; pH 7

- Kd: 1300 nM
B1: FcγRIIa (receptor)
chain: QAAAPPKAVLKLEPPWINVLQEDSVTLTCQGARSPESDSIQWFHNGNLIPTHTQPSYRFKANNNDSGEYTCQTGQTSLSDPVHLTVLSEWLVLQTPHLEFQEGETIMLRCHSWKDKPLVKVTFFQNGKSQKFSHLDPTFSIPQANHSHSGDYHCTGNIGYTLFSSKPVTITVQVPSMGSSSPMGIIVAVVIATAVAAIVAAVVALIYCRKKRISANSTDPVKAAQFEPPGRQMIAIRKRQLEETNNDYETADGGYMTLNPRAPTDDDKNIYLTLPPNDHVNSNN
